Experimental data reported in paper PMC9482650, “Quantitative fragmentomics allow affinity mapping of interactomes” (Nature Communications, 2022).

Experiments:
Assay in all cases: holdup assay
Design in all cases: key: below the threshold = too weak to quantify, mostly under pKd 3.1 to 4
Conditions in all cases: plain residues with an end cap or a label only (N-terminal biotin on a linker: ttds)
PDZD11, Q5EBL8 = target: T1, PDZD11, Q5EBL8
T1 sequence (Q5EBL8 42-139, limits assumed, looked up): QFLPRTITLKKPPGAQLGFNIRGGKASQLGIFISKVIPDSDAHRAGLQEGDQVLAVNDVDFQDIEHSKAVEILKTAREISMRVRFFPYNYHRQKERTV

PDZD2_3, O15018 = target: T2, PDZD2_3, O15018
T2 sequence (O15018 581-682, limits assumed, looked up): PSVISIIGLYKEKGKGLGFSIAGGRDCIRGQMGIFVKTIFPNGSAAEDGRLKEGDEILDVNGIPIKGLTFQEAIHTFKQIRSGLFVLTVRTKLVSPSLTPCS

DLG2_1, Q15700 = target: DLG2_1, Q15700
Inadl_7, Q8NI35 = target: Inadl_7, Q8NI35
MLLT4, P55196 = target: T3, MLLT4, P55196
T3 sequence (P55196 1002-1103, limits assumed, looked up): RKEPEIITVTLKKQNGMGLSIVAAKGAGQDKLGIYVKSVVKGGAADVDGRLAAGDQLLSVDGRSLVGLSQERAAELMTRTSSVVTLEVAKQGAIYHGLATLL

PARD3B_2, Q8TEW8 = target: PARD3B_2, Q8TEW8
RGS12, O14924 = target: T4, RGS12, O14924
T4 sequence (O14924 17-108, limits assumed, looked up): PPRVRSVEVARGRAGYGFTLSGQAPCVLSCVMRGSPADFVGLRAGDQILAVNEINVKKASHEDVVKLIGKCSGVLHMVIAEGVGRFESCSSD

MAGI3_3, Q5TCQ9 = target: MAGI3_3, Q5TCQ9
PARD6G, Q9BYG4 = target: T5, PARD6G, Q9BYG4
T5 sequence (Q9BYG4 153-261, limits assumed, looked up): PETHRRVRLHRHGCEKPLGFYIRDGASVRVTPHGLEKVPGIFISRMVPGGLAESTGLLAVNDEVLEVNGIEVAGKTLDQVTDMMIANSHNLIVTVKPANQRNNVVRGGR

NHERF1_1, O14745 = target: T6, NHERF1_1, O14745
T6 sequence (O14745 9-104, limits assumed, looked up): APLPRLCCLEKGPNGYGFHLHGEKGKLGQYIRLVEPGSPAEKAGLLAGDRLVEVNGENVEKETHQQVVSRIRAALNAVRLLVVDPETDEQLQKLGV

PARD3B_3, Q8TEW8 = target: PARD3B_3, Q8TEW8
MPDZ_11, O75970 = target: T7, MPDZ_11, O75970
T7 sequence (O75970 1720-1817, limits assumed, looked up): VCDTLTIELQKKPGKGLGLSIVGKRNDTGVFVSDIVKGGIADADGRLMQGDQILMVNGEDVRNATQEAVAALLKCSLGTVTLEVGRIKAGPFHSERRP

PDZRN4_2, Q6ZMN7 = target: PDZRN4_2, Q6ZMN7
RGS3, P49796-9 = target: RGS3, P49796-9
SHROOM3, Q8TF72 = target: T8, SHROOM3, Q8TF72
T8 sequence (Q8TF72 20-120, limits assumed, looked up): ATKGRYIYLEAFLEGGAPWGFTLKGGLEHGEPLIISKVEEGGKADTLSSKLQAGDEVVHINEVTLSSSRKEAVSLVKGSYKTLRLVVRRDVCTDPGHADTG

PDLIM3, Q53GG5 = target: T9, PDLIM3, Q53GG5
T9 sequence (Q53GG5 1-94, limits assumed, looked up): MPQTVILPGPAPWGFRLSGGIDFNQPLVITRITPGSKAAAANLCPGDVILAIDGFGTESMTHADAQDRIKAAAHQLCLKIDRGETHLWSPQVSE

RIMS1, Q86UR5 = target: RIMS1, Q86UR5
SIPA1L3, O60292 = target: T10, SIPA1L3, O60292
T10 sequence (O60292 961-1052, limits assumed, looked up): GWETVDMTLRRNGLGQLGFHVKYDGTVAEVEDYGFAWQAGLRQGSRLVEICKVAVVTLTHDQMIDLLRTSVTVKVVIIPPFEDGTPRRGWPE

PTPN4, P29074 = target: T11, PTPN4, P29074
T11 sequence (P29074 512-599, limits assumed, looked up): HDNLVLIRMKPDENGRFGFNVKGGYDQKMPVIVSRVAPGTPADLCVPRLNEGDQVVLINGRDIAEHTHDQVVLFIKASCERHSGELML

MPDZ_13, O75970 = target: T12, MPDZ_13, O75970
T12 sequence (O75970 1982-2070, limits assumed, looked up): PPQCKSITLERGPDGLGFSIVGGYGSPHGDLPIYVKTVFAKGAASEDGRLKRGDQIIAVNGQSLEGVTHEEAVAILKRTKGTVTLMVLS

MAGI3_6, Q5TCQ9 = target: MAGI3_6, Q5TCQ9
MPDZ_3, O75970 = target: T13, MPDZ_3, O75970
T13 sequence (O75970 372-473, limits assumed, looked up): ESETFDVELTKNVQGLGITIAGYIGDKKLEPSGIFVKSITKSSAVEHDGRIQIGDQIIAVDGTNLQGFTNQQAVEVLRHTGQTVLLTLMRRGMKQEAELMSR

NHERF2_1, Q15599 = target: NHERF2_1, Q15599
RIMS2, Q9UQ26 = target: RIMS2, Q9UQ26
Sequence of RIMS2, Q9UQ26 (Q9UQ26 637-758): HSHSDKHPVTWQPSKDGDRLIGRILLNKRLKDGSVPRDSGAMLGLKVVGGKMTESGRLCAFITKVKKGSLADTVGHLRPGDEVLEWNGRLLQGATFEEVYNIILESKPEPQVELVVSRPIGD

Sequence of MAGI3_6, Q5TCQ9 (Q5TCQ9 1014-1103): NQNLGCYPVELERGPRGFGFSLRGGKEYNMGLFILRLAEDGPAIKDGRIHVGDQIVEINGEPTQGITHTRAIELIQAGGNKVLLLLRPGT
Sequence of MAGI3_3, Q5TCQ9 (Q5TCQ9 572-655): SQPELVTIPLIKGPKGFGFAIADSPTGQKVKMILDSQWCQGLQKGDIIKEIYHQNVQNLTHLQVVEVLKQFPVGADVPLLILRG
Sequence of PDZRN4_2, Q6ZMN7 (Q6ZMN7 389-498): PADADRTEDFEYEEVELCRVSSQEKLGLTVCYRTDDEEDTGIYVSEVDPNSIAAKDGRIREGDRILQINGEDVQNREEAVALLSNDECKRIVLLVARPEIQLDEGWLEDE
Sequence of RGS3, P49796-9 (P49796 other isoform, or with tags, fused parts or gaps): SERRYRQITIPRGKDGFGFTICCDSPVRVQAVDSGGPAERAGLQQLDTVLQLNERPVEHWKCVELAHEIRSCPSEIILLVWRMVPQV
Sequence of RIMS1, Q86UR5 (Q86UR5 584-692): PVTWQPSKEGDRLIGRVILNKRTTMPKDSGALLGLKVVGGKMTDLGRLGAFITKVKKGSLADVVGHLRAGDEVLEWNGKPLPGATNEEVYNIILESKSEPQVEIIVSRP
Sequence of PARD3B_3, Q8TEW8 (Q8TEW8 490-594): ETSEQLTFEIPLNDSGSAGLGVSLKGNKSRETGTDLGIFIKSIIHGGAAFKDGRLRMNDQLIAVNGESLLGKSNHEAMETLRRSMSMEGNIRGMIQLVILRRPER
Sequence of NHERF2_1, Q15599 (Q15599 9-91): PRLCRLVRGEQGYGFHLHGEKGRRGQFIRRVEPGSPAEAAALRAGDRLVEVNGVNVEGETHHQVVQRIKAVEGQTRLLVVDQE
Sequence of Inadl_7, Q8NI35 (Q8NI35 1219-1332): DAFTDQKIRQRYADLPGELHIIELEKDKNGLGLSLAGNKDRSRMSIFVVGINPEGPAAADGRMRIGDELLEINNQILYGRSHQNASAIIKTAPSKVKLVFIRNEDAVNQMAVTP
Sequence of PARD3B_2, Q8TEW8 (Q8TEW8 376-471): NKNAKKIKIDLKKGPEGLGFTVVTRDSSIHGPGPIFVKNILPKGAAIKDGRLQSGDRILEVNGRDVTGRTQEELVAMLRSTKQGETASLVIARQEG

SSIDLWETAL [SLC15A5, A6NIM6]
pKd (PDZD11, Q5EBL8): below the threshold
pKd (PDZD2_3, O15018): 5.1
pKd (DLG2_1, Q15700): below the threshold
pKd (Inadl_7, Q8NI35): below the threshold
pKd (MLLT4, P55196): below the threshold
pKd (PARD3B_2, Q8TEW8): below the threshold
pKd (RGS12, O14924): below the threshold
pKd (MAGI3_3, Q5TCQ9): below the threshold
pKd (PARD6G, Q9BYG4): below the threshold
pKd (NHERF1_1, O14745): below the threshold
pKd (PARD3B_3, Q8TEW8): below the threshold
pKd (MPDZ_11, O75970): below the threshold
pKd (PDZRN4_2, Q6ZMN7): below the threshold
pKd (RGS3, P49796-9): below the threshold
pKd (SHROOM3, Q8TF72): 4.81
pKd (PDLIM3, Q53GG5): below the threshold
pKd (RIMS1, Q86UR5): below the threshold
pKd (SIPA1L3, O60292): below the threshold
pKd (PTPN4, P29074): 4.84
pKd (MPDZ_13, O75970): below the threshold
pKd (MAGI3_6, Q5TCQ9): 4.89
pKd (MPDZ_3, O75970): 4.85
pKd (NHERF2_1, Q15599): 4.68
pKd (RIMS2, Q9UQ26): below the threshold

SGGKRKETLV [NET1, Q7Z628]
pKd (PDZD11, Q5EBL8): below the threshold
pKd (PDZD2_3, O15018): below the threshold
pKd (DLG2_1, Q15700): 4.87
pKd (Inadl_7, Q8NI35): below the threshold
pKd (MLLT4, P55196): 4.02
pKd (PARD3B_2, Q8TEW8): below the threshold
pKd (RGS12, O14924): below the threshold
pKd (MAGI3_3, Q5TCQ9): below the threshold
pKd (PARD6G, Q9BYG4): below the threshold
pKd (NHERF1_1, O14745): below the threshold
pKd (PARD3B_3, Q8TEW8): below the threshold
pKd (MPDZ_11, O75970): 3.72
pKd (PDZRN4_2, Q6ZMN7): below the threshold
pKd (RGS3, P49796-9): below the threshold
pKd (SHROOM3, Q8TF72): below the threshold
pKd (PDLIM3, Q53GG5): below the threshold
pKd (RIMS1, Q86UR5): below the threshold
pKd (SIPA1L3, O60292): below the threshold
pKd (PTPN4, P29074): 3.51
pKd (MPDZ_13, O75970): 3.75
pKd (MAGI3_6, Q5TCQ9): below the threshold
pKd (MPDZ_3, O75970): below the threshold
pKd (NHERF2_1, Q15599): below the threshold
pKd (RIMS2, Q9UQ26): below the threshold

SRSRRRETAL [HPV33-E6, P06427]
pKd (PDZD11, Q5EBL8): below the threshold
pKd (PDZD2_3, O15018): below the threshold
pKd (DLG2_1, Q15700): 5.13
pKd (Inadl_7, Q8NI35): below the threshold
pKd (MLLT4, P55196): below the threshold
pKd (PARD3B_2, Q8TEW8): below the threshold
pKd (RGS12, O14924): 4.5
pKd (MAGI3_3, Q5TCQ9): below the threshold
pKd (PARD6G, Q9BYG4): below the threshold
pKd (NHERF1_1, O14745): below the threshold
pKd (PARD3B_3, Q8TEW8): below the threshold
pKd (MPDZ_11, O75970): below the threshold
pKd (PDZRN4_2, Q6ZMN7): below the threshold
pKd (RGS3, P49796-9): below the threshold
pKd (SHROOM3, Q8TF72): below the threshold
pKd (PDLIM3, Q53GG5): below the threshold
pKd (RIMS1, Q86UR5): below the threshold
pKd (SIPA1L3, O60292): below the threshold
pKd (PTPN4, P29074): 5.02
pKd (MPDZ_13, O75970): below the threshold
pKd (MAGI3_6, Q5TCQ9): below the threshold
pKd (MPDZ_3, O75970): below the threshold
pKd (NHERF2_1, Q15599): below the threshold
pKd (RIMS2, Q9UQ26): below the threshold

PPRQRSETQV [HPV82-E6, Q9IR59]
pKd (PDZD11, Q5EBL8): below the threshold
pKd (PDZD2_3, O15018): below the threshold
pKd (DLG2_1, Q15700): 4.32
pKd (Inadl_7, Q8NI35): below the threshold
pKd (MLLT4, P55196): below the threshold
pKd (PARD3B_2, Q8TEW8): below the threshold
pKd (RGS12, O14924): below the threshold
pKd (MAGI3_3, Q5TCQ9): below the threshold
pKd (PARD6G, Q9BYG4): below the threshold
pKd (NHERF1_1, O14745): below the threshold
pKd (PARD3B_3, Q8TEW8): below the threshold
pKd (MPDZ_11, O75970): below the threshold
pKd (PDZRN4_2, Q6ZMN7): below the threshold
pKd (RGS3, P49796-9): below the threshold
pKd (SHROOM3, Q8TF72): below the threshold
pKd (PDLIM3, Q53GG5): below the threshold
pKd (RIMS1, Q86UR5): below the threshold
pKd (SIPA1L3, O60292): below the threshold
pKd (PTPN4, P29074): below the threshold
pKd (MPDZ_13, O75970): below the threshold
pKd (MAGI3_6, Q5TCQ9): below the threshold
pKd (MPDZ_3, O75970): below the threshold
pKd (NHERF2_1, Q15599): below the threshold
pKd (RIMS2, Q9UQ26): below the threshold

SHSSKGETAV [FZD7, O75084]
pKd (PDZD11, Q5EBL8): below the threshold
pKd (PDZD2_3, O15018): below the threshold
pKd (DLG2_1, Q15700): 4.38
pKd (Inadl_7, Q8NI35): 4.99
pKd (MLLT4, P55196): below the threshold
pKd (PARD3B_2, Q8TEW8): 4.42
pKd (RGS12, O14924): below the threshold
pKd (MAGI3_3, Q5TCQ9): 4.54
pKd (PARD6G, Q9BYG4): below the threshold
pKd (NHERF1_1, O14745): below the threshold
pKd (PARD3B_3, Q8TEW8): below the threshold
pKd (MPDZ_11, O75970): below the threshold
pKd (PDZRN4_2, Q6ZMN7): below the threshold
pKd (RGS3, P49796-9): below the threshold
pKd (SHROOM3, Q8TF72): below the threshold
pKd (PDLIM3, Q53GG5): below the threshold
pKd (RIMS1, Q86UR5): below the threshold
pKd (SIPA1L3, O60292): below the threshold
pKd (PTPN4, P29074): below the threshold
pKd (MPDZ_13, O75970): below the threshold
pKd (MAGI3_6, Q5TCQ9): 4.71
pKd (MPDZ_3, O75970): below the threshold
pKd (NHERF2_1, Q15599): below the threshold
pKd (RIMS2, Q9UQ26): below the threshold

KLVIKTETTV [RASSF6, Q6ZTQ3]
pKd (PDZD11, Q5EBL8): below the threshold
pKd (PDZD2_3, O15018): below the threshold
pKd (DLG2_1, Q15700): 4.95
pKd (Inadl_7, Q8NI35): 4.51
pKd (MLLT4, P55196): below the threshold
pKd (PARD3B_2, Q8TEW8): below the threshold
pKd (RGS12, O14924): below the threshold
pKd (MAGI3_3, Q5TCQ9): below the threshold
pKd (PARD6G, Q9BYG4): below the threshold
pKd (NHERF1_1, O14745): below the threshold
pKd (PARD3B_3, Q8TEW8): below the threshold
pKd (MPDZ_11, O75970): below the threshold
pKd (PDZRN4_2, Q6ZMN7): below the threshold
pKd (RGS3, P49796-9): below the threshold
pKd (SHROOM3, Q8TF72): below the threshold
pKd (PDLIM3, Q53GG5): below the threshold
pKd (RIMS1, Q86UR5): below the threshold
pKd (SIPA1L3, O60292): below the threshold
pKd (PTPN4, P29074): 4.33
pKd (MPDZ_13, O75970): below the threshold
pKd (MAGI3_6, Q5TCQ9): 4.15
pKd (MPDZ_3, O75970): below the threshold
pKd (NHERF2_1, Q15599): below the threshold
pKd (RIMS2, Q9UQ26): below the threshold
